From the supplement of paper PMC9876800

System: peptide library, one residue held at a place counted from the S/T acceptor
Test: relative phosphorylation of the sub-library (ratio to the mean residue at this position); higher = residue favoured
In short: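 Relative sub-library phosphorylation, a ratio to the mean residue at that position, was obtained by phosphorimaging and densitometry of spots on streptavidin membranes. Before capture, purified recombinant kinases were incubated for 90 min under kinase-specific conditions with 50 μM biotinylated degenerate peptide sub-libraries and 50 μM ATP spiked with γ-32P-ATP. Each sub-library fixed one residue at one position around a central Ser/Thr.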

Chain of CILK1, construct: Full length, human (Q9UPZ9 whole entry, looked up): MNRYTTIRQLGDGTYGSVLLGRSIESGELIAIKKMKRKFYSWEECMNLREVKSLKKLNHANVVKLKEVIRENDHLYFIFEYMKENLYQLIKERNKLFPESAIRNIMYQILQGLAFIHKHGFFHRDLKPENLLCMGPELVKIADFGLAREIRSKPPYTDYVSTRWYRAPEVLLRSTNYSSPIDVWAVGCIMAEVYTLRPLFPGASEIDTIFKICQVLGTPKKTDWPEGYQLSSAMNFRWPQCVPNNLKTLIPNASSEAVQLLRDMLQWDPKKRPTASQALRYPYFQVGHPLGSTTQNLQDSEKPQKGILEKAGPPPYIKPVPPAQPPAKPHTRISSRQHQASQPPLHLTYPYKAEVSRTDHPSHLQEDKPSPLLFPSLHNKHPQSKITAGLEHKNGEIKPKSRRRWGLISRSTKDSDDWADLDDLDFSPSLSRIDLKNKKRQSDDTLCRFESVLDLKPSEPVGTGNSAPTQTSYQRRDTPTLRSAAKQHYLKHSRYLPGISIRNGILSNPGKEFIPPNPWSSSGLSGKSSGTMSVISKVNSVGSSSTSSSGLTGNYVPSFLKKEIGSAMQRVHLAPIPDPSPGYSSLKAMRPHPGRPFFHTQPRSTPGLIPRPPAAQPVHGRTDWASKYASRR
Chain of TTBK2, construct: aa1-450, human (Q6IQ55 1-450, looked up): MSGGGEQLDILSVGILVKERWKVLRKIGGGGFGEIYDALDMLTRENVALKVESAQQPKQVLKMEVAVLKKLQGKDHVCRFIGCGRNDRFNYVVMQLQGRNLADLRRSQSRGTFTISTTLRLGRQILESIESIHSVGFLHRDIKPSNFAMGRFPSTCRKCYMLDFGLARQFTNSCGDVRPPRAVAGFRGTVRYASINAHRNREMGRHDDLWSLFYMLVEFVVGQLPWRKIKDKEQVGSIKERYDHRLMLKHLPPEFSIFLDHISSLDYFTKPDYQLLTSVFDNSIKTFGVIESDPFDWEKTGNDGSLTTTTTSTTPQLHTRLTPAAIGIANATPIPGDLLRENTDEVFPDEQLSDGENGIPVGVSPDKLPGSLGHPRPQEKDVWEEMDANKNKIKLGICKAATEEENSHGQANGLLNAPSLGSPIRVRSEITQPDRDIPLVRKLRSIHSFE
Chain of PRKD2, construct: Full length, human (Q9BZL6 whole entry, looked up): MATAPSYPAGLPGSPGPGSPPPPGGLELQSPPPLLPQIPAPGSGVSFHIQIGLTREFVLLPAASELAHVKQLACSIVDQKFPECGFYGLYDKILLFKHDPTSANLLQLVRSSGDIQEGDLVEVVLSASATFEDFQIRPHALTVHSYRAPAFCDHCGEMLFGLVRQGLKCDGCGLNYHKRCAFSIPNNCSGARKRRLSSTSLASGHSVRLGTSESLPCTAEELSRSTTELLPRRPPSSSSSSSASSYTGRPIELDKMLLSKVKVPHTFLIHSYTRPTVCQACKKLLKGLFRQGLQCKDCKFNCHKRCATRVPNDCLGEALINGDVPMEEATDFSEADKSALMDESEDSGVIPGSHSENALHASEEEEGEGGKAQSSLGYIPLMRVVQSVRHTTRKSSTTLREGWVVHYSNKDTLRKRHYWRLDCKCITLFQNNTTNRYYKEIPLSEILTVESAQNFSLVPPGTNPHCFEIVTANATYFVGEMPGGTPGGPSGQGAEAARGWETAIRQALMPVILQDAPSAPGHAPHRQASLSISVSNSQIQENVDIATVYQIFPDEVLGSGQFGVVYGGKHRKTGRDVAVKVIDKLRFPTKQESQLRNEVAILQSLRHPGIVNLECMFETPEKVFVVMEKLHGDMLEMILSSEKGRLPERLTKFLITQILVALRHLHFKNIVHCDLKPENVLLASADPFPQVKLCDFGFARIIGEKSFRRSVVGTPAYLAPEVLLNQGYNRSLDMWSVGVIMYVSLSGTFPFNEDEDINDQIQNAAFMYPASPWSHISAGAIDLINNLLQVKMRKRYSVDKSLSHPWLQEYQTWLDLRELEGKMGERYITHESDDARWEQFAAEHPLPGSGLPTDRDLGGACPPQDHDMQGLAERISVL
Chain of MARK4, construct: Full length, human (Q96L34 whole entry, looked up): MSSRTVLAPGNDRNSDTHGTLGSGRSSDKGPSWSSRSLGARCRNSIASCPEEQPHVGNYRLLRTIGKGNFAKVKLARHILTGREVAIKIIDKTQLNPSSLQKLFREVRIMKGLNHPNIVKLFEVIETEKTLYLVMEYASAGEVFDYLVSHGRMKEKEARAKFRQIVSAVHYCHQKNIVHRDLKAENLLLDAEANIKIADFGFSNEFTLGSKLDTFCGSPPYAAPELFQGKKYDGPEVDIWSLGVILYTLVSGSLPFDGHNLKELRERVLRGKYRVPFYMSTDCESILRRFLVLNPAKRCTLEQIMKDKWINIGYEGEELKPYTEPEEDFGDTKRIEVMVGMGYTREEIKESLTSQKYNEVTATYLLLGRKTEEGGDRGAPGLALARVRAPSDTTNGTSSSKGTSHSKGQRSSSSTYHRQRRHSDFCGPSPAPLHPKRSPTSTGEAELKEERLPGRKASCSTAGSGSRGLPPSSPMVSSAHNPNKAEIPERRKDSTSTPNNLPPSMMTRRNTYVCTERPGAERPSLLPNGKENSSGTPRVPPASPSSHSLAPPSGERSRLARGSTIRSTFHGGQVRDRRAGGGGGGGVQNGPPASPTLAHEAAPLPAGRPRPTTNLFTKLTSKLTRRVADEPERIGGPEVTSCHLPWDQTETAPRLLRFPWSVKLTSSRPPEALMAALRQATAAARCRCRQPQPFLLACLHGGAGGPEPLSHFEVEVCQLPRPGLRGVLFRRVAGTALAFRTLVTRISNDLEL

TTBK2, construct: aa1-450, human (from UniProt Q6IQ55)
relative phosphorylation
Details	at +1	at +2	at +3	at +4	at -1	at -2	at -3	at -4	at -5
A fixed	0.693	1.88	1.11	1.02	0.912	1.25	0.986	0.998	1.03
D fixed	0.298	0.221	0.968	0.919	0.604	1.91	1.38	1.34	0.944
E fixed	0.913	0.22	1.42	0.928	0.64	1.36	1.2	1.08	0.905
F fixed	1.38	0.907	1.07	0.85	0.951	0.802	0.844	1.11	1.08
G fixed	0.29	0.615	1.21	1.17	0.563	0.964	1.19	1.18	1.28
H fixed	0.878	1.48	1.09	0.983	1.05	0.867	1.18	0.996	1.03
I fixed	1.72	1.07	1.01	0.853	1.24	0.742	0.949	0.881	0.99
K fixed	0.739	0.913	0.707	0.996	1.32	0.67	0.884	1.12	1.15
L fixed	1.5	0.733	1.03	0.822	1.12	1.29	0.807	0.811	0.699
M fixed	1.52	1.38	1.1	1	1.14	0.853	0.972	0.859	0.827
N fixed	0.329	0.553	0.594	0.92	0.942	1.07	1.04	0.841	0.847
P fixed	0.115	0.31	0.495	1.24	0.805	1.35	0.834	0.837	0.981
Q fixed	1.03	0.57	1	0.858	0.741	0.994	0.879	0.818	0.771
R fixed	1.1	1.8	0.801	1.29	1.71	0.743	1.13	1.06	1.41
V fixed	1.42	0.908	1.07	0.75	1.12	0.81	0.75	0.898	0.937
W fixed	1.45	1.91	1.1	1.4	0.93	0.69	0.885	1.08	0.946
Y fixed	1.63	1.54	1.23	0.998	1.22	0.643	1.09	1.1	1.18
pThr fixed	0.576	0.426	0.831	0.97	0.7	2.61	1.78	1.55	1.02
pTyr fixed	1.7	5.77	1.16	0.752	1.02	2.59	2.62	1.84	1.77

CILK1, construct: Full length, human (from UniProt Q9UPZ9)
relative phosphorylation
Details	at +1	at +2	at +3	at +4	at -1	at -2	at -3	at -4	at -5
A fixed	1.36	0.902	0.838	1.02	0.938	0.718	0.93	1.04	0.881
D fixed	0.474	1.08	0.774	0.815	0.661	0.491	0.557	0.803	1.07
E fixed	0.464	0.744	0.722	0.771	0.577	0.498	0.498	0.825	0.875
F fixed	0.972	0.992	0.98	0.809	0.675	0.559	0.567	0.922	0.991
G fixed	1.22	1.08	1.23	1.29	1.22	0.82	0.734	1.08	1.03
H fixed	0.668	1.27	1.22	1.25	1.04	0.615	0.662	0.982	1.1
I fixed	0.907	0.936	0.834	0.819	0.497	0.55	0.556	0.768	0.802
K fixed	0.752	0.968	1.33	1.09	1.63	1.09	1.07	1.21	1.1
L fixed	0.818	0.859	0.957	0.933	0.755	0.616	0.556	0.835	0.953
M fixed	0.929	0.967	0.877	0.926	1.13	0.652	0.709	1.03	0.929
N fixed	0.601	1.13	0.883	1.09	1.15	0.619	0.651	0.92	0.917
P fixed	3.85	0.907	1.15	1.22	1.36	4.79	1.09	1.19	1.04
Q fixed	0.751	1.07	1.07	1.11	1.46	0.938	0.794	1.03	1
R fixed	0.79	1.02	1.25	1.04	1.53	2.19	5.98	1.55	1.32
V fixed	0.877	0.781	0.799	0.739	0.694	0.555	0.515	0.791	0.776
W fixed	0.87	1.12	1.02	1.03	0.835	0.69	0.609	1.14	1.15
Y fixed	0.702	1.17	1.08	1.05	0.845	0.604	0.522	0.89	1.06
pThr fixed	0.722	0.66	0.828	1.06	0.459	0.561	0.625	0.828	0.807
pTyr fixed	0.711	0.992	0.796	0.93	0.513	0.514	0.564	0.68	0.841

PRKD2, construct: Full length, human (from UniProt Q9BZL6)
relative phosphorylation
Details	at +1	at +2	at +3	at +4	at -1	at -2	at -3	at -4	at -5
A fixed	0.733	0.998	0.83	0.983	0.788	1.13	0.848	1.19	1.26
D fixed	0.55	1.02	0.913	1.22	0.704	0.232	0.153	0.433	0.319
E fixed	0.422	0.622	0.731	0.928	0.452	0.404	0.266	0.885	0.286
F fixed	0.883	0.718	0.749	0.907	0.592	0.592	0.345	0.718	0.788
G fixed	0.986	1.31	1.65	1.43	0.613	0.516	0.679	1.51	0.762
H fixed	0.977	1.06	1	1.15	1.03	0.838	0.658	0.963	0.517
I fixed	0.932	0.434	0.532	0.602	0.402	0.417	0.222	0.593	1.1
K fixed	1.22	1.07	1.11	1.14	2.6	2.73	2.59	1.86	0.788
L fixed	1.1	0.627	0.772	0.675	1.04	0.785	0.28	0.698	2.71
M fixed	1.12	0.71	0.656	0.732	0.886	1.62	0.424	1.13	0.752
N fixed	2.43	2.02	1.44	1.19	1.73	1.06	0.682	0.778	0.634
P fixed	0.399	1.89	2.6	1.42	1.49	0.415	0.992	0.512	1.35
Q fixed	1.42	1.3	1.09	1.28	0.993	2.09	0.981	1.4	1.02
R fixed	1.14	1.01	0.794	0.701	1.71	2.34	6.73	2.16	1.8
V fixed	0.902	0.49	0.592	0.756	0.571	0.73	0.265	0.714	1.62
W fixed	0.759	0.916	0.736	1.01	0.545	0.474	0.438	0.663	0.515
Y fixed	1.02	0.804	0.796	0.889	0.857	0.625	0.443	0.79	0.78
pThr fixed	0.67	0.623	0.888	0.916	0.194	0.233	0.213	0.628	0.39
pTyr fixed	0.699	0.574	0.946	0.864	0.781	0.31	0.215	0.523	0.775

MARK4, construct: Full length, human (from UniProt Q96L34)
relative phosphorylation
Details	at +1	at +2	at +3	at +4	at -1	at -2	at -3	at -4	at -5
A fixed	0.923	1	0.855	0.686	1.2	1.82	0.932	1.32	1.32
D fixed	0.605	0.8	1.94	0.629	0.694	0.498	0.552	0.801	0.875
E fixed	0.864	1.08	0.886	0.529	0.582	0.447	0.522	0.844	0.676
F fixed	0.652	0.854	0.919	0.788	0.472	1.08	0.91	0.875	1.03
G fixed	0.706	0.562	0.687	0.611	2.59	1.62	0.951	1.32	1.15
H fixed	0.956	1.01	1.45	0.652	0.868	1.26	1.25	1.11	0.977
I fixed	0.933	0.829	0.653	2.53	0.464	0.599	0.572	0.61	0.818
K fixed	0.83	0.707	0.627	0.517	1.64	0.884	1.65	1.34	1.33
L fixed	1.11	1.14	0.857	4.02	0.668	0.479	0.692	0.726	1.27
M fixed	1.89	0.973	0.879	1.41	0.756	0.62	0.881	1.04	0.969
N fixed	1.17	1.02	2.69	0.601	0.982	0.718	0.695	0.913	0.753
P fixed	0.372	0.785	0.344	0.587	1.37	0.709	1.08	1.1	0.893
Q fixed	1.74	1.11	0.894	0.576	1.3	0.6	0.751	0.775	0.81
R fixed	1.12	0.826	0.592	0.41	1.36	0.97	2.57	1.34	1.2
V fixed	1.29	0.872	0.634	1.27	0.721	0.682	0.634	0.711	0.972
W fixed	0.9	2.44	0.961	0.58	0.581	2.41	1.42	1.17	1.13
Y fixed	0.94	0.991	1.13	0.6	0.758	1.6	0.938	1	0.819
pThr fixed	0.858	0.855	0.4	0.541	0.428	0.577	0.542	0.786	0.706
pTyr fixed	0.58	0.648	0.716	0.471	0.618	0.611	0.636	0.802	0.681
